# US8974774
# Target: carcinoembryonic antigen (human) (UniProt P06731)
# Sequence of UniProt P06731 (P06731 35-702): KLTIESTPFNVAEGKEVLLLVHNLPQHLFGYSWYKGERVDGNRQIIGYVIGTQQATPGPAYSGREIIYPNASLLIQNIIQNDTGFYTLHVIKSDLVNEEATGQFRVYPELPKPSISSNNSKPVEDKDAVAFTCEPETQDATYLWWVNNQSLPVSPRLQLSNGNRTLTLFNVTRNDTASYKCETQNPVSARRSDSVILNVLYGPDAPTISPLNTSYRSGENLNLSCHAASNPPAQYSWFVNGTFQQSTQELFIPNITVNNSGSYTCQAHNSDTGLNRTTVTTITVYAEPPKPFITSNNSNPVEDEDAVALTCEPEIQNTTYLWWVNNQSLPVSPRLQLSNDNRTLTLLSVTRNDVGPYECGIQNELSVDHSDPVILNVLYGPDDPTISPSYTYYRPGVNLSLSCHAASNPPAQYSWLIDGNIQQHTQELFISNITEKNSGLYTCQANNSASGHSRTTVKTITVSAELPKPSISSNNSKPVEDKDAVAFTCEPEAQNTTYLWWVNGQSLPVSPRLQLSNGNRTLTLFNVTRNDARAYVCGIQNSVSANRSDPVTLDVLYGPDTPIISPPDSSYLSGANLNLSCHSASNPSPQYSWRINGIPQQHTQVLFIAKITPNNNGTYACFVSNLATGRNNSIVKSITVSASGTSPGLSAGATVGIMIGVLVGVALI
substance,measurement,value
"Monoclonal antibody to carcinoembryonic antigen (CEA; clone CD66e, US Biological) covalently conjugated to anionic polyaspartate (3K MW)",percent of colon carcinoma cells positive for fluorescein signal,87.6%
